# In patent publication US20200308299A1, “ANTI-GPC-1 ANTIBODY” (National University Corporation Kochi University, priority 2017, published 2020):
# Changes are numbered by the printed parent chain.
# B1: clone 18: anti-Glypican-1 antibody, heavy chain SEQ ID NO: 202, light chain SEQ ID NO: 204; sequence from WO 2015/098112 (antibody)
# heavy: AVTLDESGGGLQTPGGTLSLVCKASGFDFSSVNMFWVRQAPGKGLEFVAGIDNDATFTLYGSAVKGRASISRDNGQSTVRLQLNNLRAEDTGTYYCAKTLCSTTWGCGAYSAGDIDAWGHGTEVIVSS
# light: ASTQPSSVSANPGETVKITCSGGGSSGYGYYGWYQQKSPGSAPVTVIYNNNKRPTDIPSRFSGALSGSTATLTITGVQVEDEAVYYCGSRDNTYVGIFGAGTTLTVL
# B2: clone 01a017: anti-human Glypican-1 antibody, heavy chain SEQ ID NO: 138, light chain SEQ ID NO: 140 (antibody)
# heavy: MKHLWFFLLLVAAPRWVLSEVQLQQSGGELVRPGTSVKMSCKAAGYTFTNYWIGWVKQRPGHGLEWIGDLYPGGGYTHYNEKFKGKATLTADTSSSTAYMQLSSLTSEDSAIYYCARERVYFDGSRYFDVWGAGTTVTVSSAKTTAPSVYPLAPVCGDTTGSSVTLGCLVKGYFPEPVTLTWNSGSLSSGVHTFPAVLQSDLYTLSSSVTVTSSTWPSQSITCNVAHPASSTKVDKKIEPRGPTIKPCPPCKCPAPNLLGGPSVFIFPPKIKDVLMISLSPIVTCVVVDVSEDDPDVQISWFVNNVEVHTAQTQTHREDYNSTLRVVSALPIQHQDWMSGKEFKCKVNNKDLPAPIERTISKPKGSVRAPQVYVLPPPEEEMTKKQVTLTCMVTDFMPEDIYVEWTNNGKTELNYKNTEPVLDSDGSYFMYSKLRVEKKNWVERNSYSCSVVHEGLHNHHTTKSFSRTPGK
# light: MRLLAQLLGLLMLWVPGSSGSIVMTQTPKFLPVSAGDRVTMTCKASQSVGNNVAWYQQKPGQSPKLLIYYASNRYTGVPDRFTGSGSGTDFTFTISSVQVEDLAVYFCQQHYSSPWTFGGGTKLEIKRADAAPTVSIFPPSSEQLTSGGASVVCFLNNFYPKDINVKWKIDGSERQNGVLNSWTDQDSKDSTYSMSSTLTLTKDEYERHNSYTCEATHKTSTSPIVKSFNRNEC
# B3: clone 02a014: anti-human Glypican-1 antibody, heavy chain SEQ ID NO: 178, light chain SEQ ID NO: 180 (antibody)
# heavy: MKHLWFFLLLVAAPRWVLSEVQLQQSGPELVKPGASVKISCKASGYSFTGYYIHWVKQSPEKSLEWIGEINPSTGDITYNQKFKAKATLTVDKSSSTAYMQLKSLTSDDSAVYYCARERNYDRFAYWGQGTLVTVSSAKTTAPSVYPLAPVCGDTTGSSVTLGCLVKGYFPEPVTLTWNSGSLSSGVHTFPAVLQSDLYTLSSSVTVTSSTWPSQSITCNVAHPASSTKVDKKIEPRGPTIKPCPPCKCPAPNLLGGPSVFIFPPKIKDVLMISLSPIVTCVVVDVSEDDPDVQISWFVNNVEVHTAQTQTHREDYNSTLRVVSALPIQHQDWMSGKEFKCKVNNKDLPAPIERTISKPKGSVRAPQVYVLPPPEEEMTKKQVTLTCMVTDFMPEDIYVEWTNNGKTELNYKNTEPVLDSDGSYFMYSKLRVEKKNWVERNSYSCSVVHEGLHNHHTTKSFSRTPGK
# light: MRLLAQLLGLLMLWVPGSSGSIVMTQTPALMAASPGEKVTITCSVSSSISSSNLHWYQQKSETSPKPWIYGTSNLASGVPVRFSGSGSGTSYSLTISSMEAEDAATYYCQQWSSYPLTFGAGTKLEIKRADAAPTVSIFPPSSEQLTSGGASVVCFLNNFYPKDINVKWKIDGSERQNGVLNSWTDQDSKDSTYSMSSTLTLTKDEYERHNSYTCEATHKTSTSPIVKSFNRNEC
# B4: clone 01a042: anti-human Glypican-1 antibody, heavy chain SEQ ID NO: 162, light chain SEQ ID NO: 164 (antibody)
# heavy: MKHLWFFLLLVAAPRWVLSQVQLQQPGAELAKPGASVKMSCKASGYTFTRYWMHWVKQRPGQGLEWIGYINPSSGYTEYNQKFKDKATLTADKSSSTAYMQLSSLTSEDSAVYYCVRLGDYSYYFDYWGQGTTLTVSSAKTTAPSVYPLAPVCGDTTGSSVTLGCLVKGYFPEPVTLTWNSGSLSSGVHTFPAVLQSDLYTLSSSVTVTSSTWPSQSITCNVAHPASSTKVDKKIEPRGPTIKPCPPCKCPAPNLLGGPSVFIFPPKIKDVLMISLSPIVTCVVVDVSEDDPDVQISWFVNNVEVHTAQTQTHREDYNSTLRVVSALPIQHQDWMSGKEFKCKVNNKDLPAPIERTISKPKGSVRAPQVYVLPPPEEEMTKKQVTLTCMVTDFMPEDIYVEWTNNGKTELNYKNTEPVLDSDGSYFMYSKLRVEKKNWVERNSYSCSVVHEGLHNHHTTKSFSRTPGK
# light: MRLLAQLLGLLMLWVPGSSGDVVMTQTPLSLPVSLGDQASISCRSSQSIVHSNGNTYLEWYLQKPGQSPKLLIYKVSNRFSGVPDRFSGSGSGTDFTLKISRVEAEDLGVYYCFQGSHVPWTFGGGTKLELKRADAAPTVSIFPPSSEQLTSGGASVVCFLNNFYPKDINVKWKIDGSERQNGVLNSWTDQDSKDSTYSMSSTLTLTKDEYERHNSYTCEATHKTSTSPIVKSFNRNEC
# B5: clone 02a010: anti-human Glypican-1 antibody, heavy chain SEQ ID NO: 174, light chain SEQ ID NO: 176 (antibody)
# heavy: MKHLWFFLLLVAAPRWVLSEVKLVESGGGLVKPGGSRKLSCAASGFTFSDYGMHWVRQAPEKGLEWVAYINSGSSTIYYADTVKGRFTISRDNAKNTLFLQMTSLRSGDTAMYYCARHSYYSYDVGGDYVMDYWGQGTSVTVSSAKTTAPSVYPLAPVCGDTTGSSVTLGCLVKGYFPEPVTLTWNSGSLSSGVHTFPAVLQSDLYTLSSSVTVTSSTWPSQSITCNVAHPASSTKVDKKIEPRGPTIKPCPPCKCPAPNLLGGPSVFIFPPKIKDVLMISLSPIVTCVVVDVSEDDPDVQISWFVNNVEVHTAQTQTHREDYNSTLRVVSALPIQHQDWMSGKEFKCKVNNKDLPAPIERTISKPKGSVRAPQVYVLPPPEEEMTKKQVTLTCMVTDFMPEDIYVEWTNNGKTELNYKNTEPVLDSDGSYFMYSKLRVEKKNWVERNSYSCSVVHEGLHNHHTTKSFSRTPGK
# light: MRLLAQLLGLLMLWVPGSSGDIVLTQSPKFMSTSVGDRVSITCKASQDVGTAVAWYQQKPGQSPKLLIYWASTRHTGVPDRFTGSGSGTDFTLTISNVQSEDLADYFCQQYSSYPLTFGAGTKLEIKRADAAPTVSIFPPSSEQLTSGGASVVCFLNNFYPKDINVKWKIDGSERQNGVLNSWTDQDSKDSTYSMSSTLTLTKDEYERHNSYTCEATHKTSTSPIVKSFNRNEC
# B6: clone 02b006: anti-human Glypican-1 antibody, heavy chain SEQ ID NO: 194, light chain SEQ ID NO: 196 (antibody)
# heavy: B5 heavy with K22Q, N71S, G108E, M112I, A116V, S122N, V125I, D128Y, V130A
# light: MRLLAQLLGLLMLWVPGSSGDIVLTQSPSSLSASLGERVSLTCRASQEISGYLSWLQQKPDGTIKRLIYAASTLDSGVPKRFSGSRSGSDYSLTISSLESEDFADYYCLQYASYPLTFGAGTKLEIKRADAAPTVSIFPPSSEQLTSGGASVVCFLNNFYPKDINVKWKIDGSERQNGVLNSWTDQDSKDSTYSMSSTLTLTKDEYERHNSYTCEATHKTSTSPIVKSFNRNEC
# B7: clone 02a002: anti-human Glypican-1 antibody, heavy chain SEQ ID NO: 166, light chain SEQ ID NO: 168 (antibody)
# heavy: B5 heavy with N71S, G108E
# light: B5 light with L24M, T25S
# Tested on: TE14 cells
# Assay: ADC assay combining anti-GPC-1 antibody and MMAF binding secondary antibody, TE14 cells
# Type: cell-based
# Settings: primary antibody plus MMAF secondary antibody
# Procedure: FIG. 1 depicts a schematic diagram of an ADC used in an assay. This Example used a secondary antibody (MORADEC) to the anti-GPC1 antibody made in Example 1, to which an anticancer agent (MMAF) was bound via a linker.
# 2000 TE14 cells were added to a 96-well plate at 80 μl. The cells were cultured overnight at 37° C. in a 5% CO2 incubator. The next day, 10 μl of an anticancer agent bound secondary antibody and 10 μl of a primary antibody concentrated 10-fold relative to the final concentration was added to each well, so that the total amount was 100 μl. The cells were cultured for 6 days at 37° C. in a 5% CO2 incubator. The cell viability was measured by using a CellTiter-Glo Luminescent Cell Viability Assay reagent to detect the amount of ATP. RPMI1640+10% FBS+1% PS was used as the medium. The final concentrations of the primary antibody were 0, 0.004, 0.0156, 0.0625, 0.25, and 1.0 nM. 2 μg/ml of Fab-aMFc-CL-MMAF (model number: AM202AF-50, Moradec) was used as the secondary antibody.
row,EC50 values against TE14 cells,Molecule
1,excellent EC50 values,B1
2,excellent EC50 values,B2
3,excellent EC50 values,B3
4,excellent EC50 values,B4
5,excellent EC50 values,B5
6,excellent EC50 values,B6
7,excellent EC50 values,B7

# Tested on: DU145 cells
# Assay: ADC assay combining anti-GPC-1 antibody and MMAF binding secondary antibody in DU145 cells
# Type: cell-based
# Settings: primary antibody plus MMAF secondary antibody 2 μg/ml, 3 days
# Procedure: 2000 DU145 cells were added to a 96-well plate at 80 μl. The cells were cultured overnight at 37° C. in a 5% CO2 incubator. The next day, 10 μl each of anticancer agent binding secondary antibody (2 μg/ml) and primary antibody concentrated 10-fold relative to the final concentration was added to each well, so that the total amount was 100 μl. The cells were cultured for 3 days at 37° C. in a 5% CO2 incubator. The cell viability was measured by using a CellTiter-Glo Luminescent Cell Viability Assay reagent to detect the amount of ATP. RPMI1640+10% FBS+1% PS was used as the medium. The final concentrations of the primary antibodies were […]. 2 μg/ml of Fab-aMFc-CL-MMAF (model number AM202AF-50, Moradec) was used as the secondary antibody. The EC50 value was analyzed with GraphPad Prism 6. The same experiment was conducted using 4000 MDA-MB231 cells as the control.
row,Molecule,growth suppressing effect against DU145 cells
1,B5,high growth suppressing effect

# Same assay, conditions: primary antibody plus MMAF secondary antibody, 3 days
row,EC50 values against DU145 cells,Molecule
1,excellent EC50 values,B1
2,excellent EC50 values,B2
3,excellent EC50 values,B3
4,excellent EC50 values,B4
5,excellent EC50 values,B5
6,excellent EC50 values,B6
7,excellent EC50 values,B7
